B1: 6His-Cdc24_(428-854) (domain or fragment)
chain: SSDDNNTKELEAALDISKNIARSINENQRRTENHQVVKKLYGRVVNWKGYRISKFGELLYFDKVFISTTNSSSEPEREFEVYLFEKIIILFSEVVTKKSASSLILKKKSSTSASISASNITDNNGSPHHSYHKRHSNSSSSNNIHLSSSSAAAIIHSSTNSSDNNSNNSSSSSLFKLSANEPKLDLRGRIMIMNLNQIIPQNNRSLNITWESIKEQGNFLLKFKNEETRDNWSSCLQQLIHDLKNEQFKARHHSSTSTTSSTAKSSSMMSPTTTMNTPNHHNSRQTHDSMASFSSSHMKRVSDVLPKRRTTSSSFESEIKSISENFKNSIPESSILFRISYNNNSNNTSSSEIFTLLVEKVWNFDDLIMAINSKISNTHNNNISPITKIKYQDEDGDFVVLGSDEDWNVAKEMLAENNEKFLNIRLY

Assays:
[1] = target: SNAP-tagged septin rods (yeast, UniProt P32458;P32468;P32457;P25342); experiment: SPR
Chain of SNAP-tagged septin rods (P32468 whole entry, chain 2 of 3): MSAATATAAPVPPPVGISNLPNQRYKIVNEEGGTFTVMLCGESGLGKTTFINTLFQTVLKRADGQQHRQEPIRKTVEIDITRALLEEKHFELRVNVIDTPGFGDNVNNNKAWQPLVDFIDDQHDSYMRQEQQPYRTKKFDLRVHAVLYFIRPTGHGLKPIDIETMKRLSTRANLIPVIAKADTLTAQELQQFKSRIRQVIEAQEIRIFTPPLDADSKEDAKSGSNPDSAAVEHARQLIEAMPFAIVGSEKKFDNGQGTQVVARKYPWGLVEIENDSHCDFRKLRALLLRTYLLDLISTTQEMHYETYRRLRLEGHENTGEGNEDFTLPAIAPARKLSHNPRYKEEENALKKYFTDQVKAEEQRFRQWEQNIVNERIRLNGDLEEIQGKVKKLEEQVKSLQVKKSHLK
Chain of SNAP-tagged septin rods (P32457 whole entry, chain 3 of 3): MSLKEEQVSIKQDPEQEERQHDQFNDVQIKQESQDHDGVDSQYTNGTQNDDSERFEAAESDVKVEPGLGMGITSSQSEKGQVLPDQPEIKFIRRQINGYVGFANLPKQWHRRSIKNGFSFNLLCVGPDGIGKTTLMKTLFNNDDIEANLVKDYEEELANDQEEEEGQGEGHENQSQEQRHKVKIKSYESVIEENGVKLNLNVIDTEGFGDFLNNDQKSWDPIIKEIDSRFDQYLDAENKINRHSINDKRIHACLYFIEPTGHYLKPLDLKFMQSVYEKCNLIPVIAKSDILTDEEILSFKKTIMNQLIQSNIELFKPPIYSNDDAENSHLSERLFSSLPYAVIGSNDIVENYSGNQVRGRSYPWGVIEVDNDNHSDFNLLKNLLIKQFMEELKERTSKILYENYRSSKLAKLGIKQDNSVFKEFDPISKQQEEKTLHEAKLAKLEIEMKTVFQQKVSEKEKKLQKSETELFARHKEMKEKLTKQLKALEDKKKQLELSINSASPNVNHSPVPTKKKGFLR
Chain of SNAP-tagged septin rods (P25342 whole entry, chain 4 of 3): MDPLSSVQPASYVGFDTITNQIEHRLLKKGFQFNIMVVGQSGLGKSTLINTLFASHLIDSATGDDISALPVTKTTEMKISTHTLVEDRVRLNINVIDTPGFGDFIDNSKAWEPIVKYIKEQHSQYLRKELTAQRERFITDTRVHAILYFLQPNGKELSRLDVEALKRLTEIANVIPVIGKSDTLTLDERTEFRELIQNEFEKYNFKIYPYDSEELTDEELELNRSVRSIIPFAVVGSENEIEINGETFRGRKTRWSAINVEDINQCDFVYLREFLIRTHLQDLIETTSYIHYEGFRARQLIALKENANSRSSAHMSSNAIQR

[2] = target: T1, Cdc24_(428-854) _(K525E) (yeast, UniProt P11433 428-854, K525E); experiment: SPR
T1 sequence: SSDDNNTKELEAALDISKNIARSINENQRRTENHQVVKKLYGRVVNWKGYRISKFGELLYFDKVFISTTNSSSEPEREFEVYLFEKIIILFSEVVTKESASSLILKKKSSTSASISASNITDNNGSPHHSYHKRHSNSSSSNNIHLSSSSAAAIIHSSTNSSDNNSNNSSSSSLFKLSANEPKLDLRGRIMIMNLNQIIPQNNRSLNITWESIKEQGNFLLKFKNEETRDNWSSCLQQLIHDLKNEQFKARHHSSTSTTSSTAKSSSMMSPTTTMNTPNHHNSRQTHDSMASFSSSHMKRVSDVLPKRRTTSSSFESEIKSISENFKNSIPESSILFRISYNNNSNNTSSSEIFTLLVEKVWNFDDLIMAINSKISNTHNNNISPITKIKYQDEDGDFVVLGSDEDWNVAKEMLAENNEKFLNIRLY

[3] = target: T2, Cdc24_(428-854) _(K525E) _(K801A) (yeast, UniProt P11433 428-854, K525E | K801A); experiment: SPR
T2 sequence: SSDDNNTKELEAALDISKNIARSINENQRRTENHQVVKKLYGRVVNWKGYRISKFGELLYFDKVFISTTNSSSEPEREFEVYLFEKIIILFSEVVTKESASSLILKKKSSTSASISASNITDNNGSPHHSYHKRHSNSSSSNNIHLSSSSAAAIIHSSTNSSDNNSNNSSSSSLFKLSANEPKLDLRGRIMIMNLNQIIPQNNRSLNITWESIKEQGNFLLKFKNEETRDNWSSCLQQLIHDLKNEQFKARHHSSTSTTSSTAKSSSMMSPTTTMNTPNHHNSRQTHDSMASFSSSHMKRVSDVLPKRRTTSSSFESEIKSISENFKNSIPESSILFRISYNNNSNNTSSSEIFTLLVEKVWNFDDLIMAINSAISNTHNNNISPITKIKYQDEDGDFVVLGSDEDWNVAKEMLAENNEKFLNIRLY

[4] = target: T3, 6His-Cdc24_(428-854) _(K801A) (yeast, UniProt P11433 428-854, K801A); experiment: SPR
T3 sequence: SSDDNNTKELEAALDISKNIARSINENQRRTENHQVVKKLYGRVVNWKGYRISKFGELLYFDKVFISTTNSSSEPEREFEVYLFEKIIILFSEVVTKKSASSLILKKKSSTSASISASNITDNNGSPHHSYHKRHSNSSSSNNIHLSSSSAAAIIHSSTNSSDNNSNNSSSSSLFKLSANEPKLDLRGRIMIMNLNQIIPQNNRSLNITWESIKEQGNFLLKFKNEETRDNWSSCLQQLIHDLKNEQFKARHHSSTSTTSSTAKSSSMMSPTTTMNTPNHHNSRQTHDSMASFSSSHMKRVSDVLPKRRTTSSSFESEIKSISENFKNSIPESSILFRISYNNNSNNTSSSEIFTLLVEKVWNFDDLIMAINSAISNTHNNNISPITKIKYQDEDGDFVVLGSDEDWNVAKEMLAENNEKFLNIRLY

[5] = target: B1; experiment: SPR
[6] = target: B1; experiment: pull-down

A Kd [1] of 351 nM was found for B1 in this work.

B2: 6His-Cdc11-SNAP (natural protein)
chain: MSGIIDASSALRKRKHLKRGITFTVMIVGQSGSGRSTFINTLCGQQVVDTSTTILLPTDTSTEIDLQLREETVELEDDEGVKIQLNIIDTPGFGDSLDNSPSFEIISDYIRHQYDEILLEESRVRRNPRFKDGRVHCCLYLINPTGHGLKEIDVEFIRQLGSLVNIIPVISKSDSLTRDELKLNKKLIMEDIDRWNLPIYNFPFDEDEISDEDYETNMYLRTLLPFAIIGSNEVYEMGGDVGTIRGRKYPWGILDVEDSSISDFVILRNALLISHLHDLKNYTHEILYERYRTEALSGESVAAESIRPNLTKLNGSSSSSTTTRRNTNPFKQSNNINNDVLNPASDMHGQSTGENNETYMTREEQIRLEEERLKAFEERVQQELLLKRQELLQREKELREIEARLEKEAKIKQEE
modifications: biotinylated with BG-Biotin (on the SNAP tag)
B2: binds [2]; binds [3]; binds [4]. It also gave a Kd [5] of 257 nM.

B3: GST-Cdc11 (natural protein)
chain: MSGIIDASSALRKRKHLKRGITFTVMIVGQSGSGRSTFINTLCGQQVVDTSTTILLPTDTSTEIDLQLREETVELEDDEGVKIQLNIIDTPGFGDSLDNSPSFEIISDYIRHQYDEILLEESRVRRNPRFKDGRVHCCLYLINPTGHGLKEIDVEFIRQLGSLVNIIPVISKSDSLTRDELKLNKKLIMEDIDRWNLPIYNFPFDEDEISDEDYETNMYLRTLLPFAIIGSNEVYEMGGDVGTIRGRKYPWGILDVEDSSISDFVILRNALLISHLHDLKNYTHEILYERYRTEALSGESVAAESIRPNLTKLNGSSSSSTTTRRNTNPFKQSNNINNDVLNPASDMHGQSTGENNETYMTREEQIRLEEERLKAFEERVQQELLLKRQELLQREKELREIEARLEKEAKIKQEE
B3: binds [6].
